Data from patent publication EP4549938A1.

Target: No. 1 APOA2-like protein (vasculitis-associated apolipoprotein A2, VAP2) (human)
Experiment: Western blot band score with VasSF, COVID-19 patient sera at hospital admission (Fig. 4)

B1: VasSF, single chain variable region fragment (ScFv) (scFv, V domains shown)
VH: QVHLVESGGGLVQPGRSLRLSCAVSGFTFASYAMHWVRQAPGKGLEWVAGISKDGSNKRHADSLEGRFTISRDNSKNTLYLQVSGLRAEDTAVYYCARSQDPTDFDWLLSEHWGQGTLVTVSS
  signal score: 4 /2 µL serum
